Measured values as given in the supplement of paper PMC9233669.
Fewer inactive variants are shown than the library holds.

Tests used:
biotinyl-Val-oxazolone = experiment: self-aminoacylation, catalytic enhancement (BVO) (fold over background); higher = more active; k-Seq, kA / k0A0; sequences stand for … in GGGAAUGGAUCCACAUCUACGAAUUC…UUCACUGCAGACUUGACGAAGCUG
Method in brief: (§1)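 Mutagenized RNA pools with a 21-nt variable region (0.43 μM) were reacted with each biotinyl-aminoacyl-oxazolone at 2–1250 μM for 90 minutes at room temperature, in 50 μL HEPES/NaCl/KCl/MgCl2/CaCl2 buffer containing 5% acetonitrile at pH 6.9–7.0. RNA captured on streptavidin was quantified by triplicate qPCR and by Illumina sequencing. The fraction reacted for each sequence was fit to a pseudo-first-order model with bootstrapping, and catalytic enhancement is the median kA divided by the uncatalyzed rate, taken as the low-activity peak of a bimodal Gaussian fit.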

biotinyl-Ile-oxazolone = experiment: self-aminoacylation, catalytic enhancement (BIO) (fold over background); higher = more active; k-Seq, kA / k0A0; sequences stand for … in GGGAAUGGAUCCACAUCUACGAAUUC…UUCACUGCAGACUUGACGAAGCUG
Method in brief: as §1

biotinyl-Met-oxazolone = experiment: self-aminoacylation, catalytic enhancement (BMO) (fold over background); higher = more active; k-Seq, kA / k0A0; sequences stand for … in GGGAAUGGAUCCACAUCUACGAAUUC…UUCACUGCAGACUUGACGAAGCUG
Method in brief: as §1

biotinyl-Leu-oxazolone = experiment: self-aminoacylation, catalytic enhancement (BLO) (fold over background); higher = more active; k-Seq, kA / k0A0; sequences stand for … in GGGAAUGGAUCCACAUCUACGAAUUC…UUCACUGCAGACUUGACGAAGCUG
Method in brief: as §1

biotinyl-Phe-oxazolone = experiment: self-aminoacylation, catalytic enhancement (BFO) (fold over background); higher = more active; k-Seq, kA / k0A0; sequences stand for … in GGGAAUGGAUCCACAUCUACGAAUUC…UUCACUGCAGACUUGACGAAGCUG
Method in brief: as §1

biotinyl-Trp-oxazolone = experiment: self-aminoacylation, catalytic enhancement (BWO) (fold over background); higher = more active; k-Seq, kA / k0A0; sequences stand for … in GGGAAUGGAUCCACAUCUACGAAUUC…UUCACUGCAGACUUGACGAAGCUG
Method in brief: as §1

Sequence	self-aminoacylation (biotinyl-Val-oxazolone)	self-aminoacylation (biotinyl-Ile-oxazolone)	self-aminoacylation (biotinyl-Met-oxazolone)	self-aminoacylation (biotinyl-Leu-oxazolone)	self-aminoacylation (biotinyl-Phe-oxazolone)	self-aminoacylation (biotinyl-Trp-oxazolone)
AUUACCCAGGUCAACGAGUGA [Fam2.1 aminoacylation ribozyme variant]	3.76	3.57	7.03	6.2	24.9	7.71
AUUACCCAGGUCAUAGAGUGA [Fam2.1 aminoacylation ribozyme variant]	5.27	4.85	10.7	9.64	37.5	11.3
AUUACCCAGGUCAUCGAGUAA [Fam2.1 aminoacylation ribozyme variant]	1.06	1.49	1.54	1.16	1.09	1.57
AUUACCCAGGUCAUCGAGUGA [Fam2.1 aminoacylation ribozyme variant]	3.55	3.21	5.79	6.08	22.8	6.89
AUUACCCCGCUCAUCGAGUGA [Fam2.1 aminoacylation ribozyme variant]	1.73	1.16	1.89	1.99	6.93	1.17
AUUACCCCGGACAUCGAGUGA [Fam2.1 aminoacylation ribozyme variant]	2.48	2.38	4.74	4.04	19.6	5.47
AUUACCCCGGCCAUCGAGUGA [Fam2.1 aminoacylation ribozyme variant]	4.34	2.68	4.03	5.86	20.7	5.24
AUUACCCCGGUAAUCGAGUGA [Fam2.1 aminoacylation ribozyme variant]	2.85	2.73	5.18	4.59	26.7	5.41
AUUACCCCGGUCACCGAGUGA [Fam2.1 aminoacylation ribozyme variant]	4.77	5.59	12.7	13	95.8	12.3
AUUACCCCGGUCAUCGAGUAA [Fam2.1 aminoacylation ribozyme variant]	1.26	1.53	1.2	1.9	5.28	2.01
AUUACCCCGGUCAUCGAGUCA [Fam2.1 aminoacylation ribozyme variant]	0.988	1.24	0.928	1.06	1.3	0.734
AUUACCCCGGUCUUCGAGUGA [Fam2.1 aminoacylation ribozyme variant]	3.4	3.2	4.71	4.72	29.3	6.46
AUUACCCCGGUGAUCGAGUGA [Fam2.1 aminoacylation ribozyme variant]	2.23	2.23	3.73	3.33	21.5	4.35
AUUACCCCGGUUAUCGAGUGA [Fam2.1 aminoacylation ribozyme variant]	2.74	2.72	6.01	6.39	32.1	5.95
AUUACCCGGCUCAUCGAGUGA [Fam2.1 aminoacylation ribozyme variant]	1.72	1.79	1.72	1.71	0.746	1.61
AUUACCCGGGUCAACGAGUGA [Fam2.1 aminoacylation ribozyme variant]	4.94	5.11	9.41	9.62	63.5	9.96
AUUACCCGGGUCAUAGAGUGA [Fam2.1 aminoacylation ribozyme variant]	4.45	4.55	9.33	9.4	71.4	10.4
AUUACCCGGGUCAUCAAGUGA [Fam2.1 aminoacylation ribozyme variant]	2.08	1.77	2.59	2.35	5.43	2.93
AUUACCCGGGUCAUCGACUGA [Fam2.1 aminoacylation ribozyme variant]	0.837	0.845	0.768	0.675	0.62	0.755
AUUACCCGGGUCAUCGAGGGA [Fam2.1 aminoacylation ribozyme variant]	1.32	1.46	1.32	1.61	3.47	0.834
AUUACCCGGGUCAUCGAGUGC [Fam2.1 aminoacylation ribozyme variant]	1.39	1.46	1.21	1.72	5.14	1.13
AUUACCCGGGUCAUCGAGUGU [Fam2.1 aminoacylation ribozyme variant]	2.11	2.33	3.48	3.19	10.8	3.42
AUUACCCGGGUCAUCGCGUGA [Fam2.1 aminoacylation ribozyme variant]	15.6	12	25.4	28.3	178	27.8
AUUACCCGGGUGAUCGAGUGA [Fam2.1 aminoacylation ribozyme variant]	4.2	3.2	7.21	7.76	46.1	8.54
AUUACCCUAAUCAUCGAGUGA [Fam2.1 aminoacylation ribozyme variant]	3.39	3.28	6.83	6.87	19.8	7.8
AUUACCCUAGUCGUCGAGUGA [Fam2.1 aminoacylation ribozyme variant]	0.97	0.866	0.893	0.845	1.04	0.759

Sequence	self-aminoacylation (biotinyl-Val-oxazolone)	self-aminoacylation (biotinyl-Ile-oxazolone)	self-aminoacylation (biotinyl-Met-oxazolone)	self-aminoacylation (biotinyl-Leu-oxazolone)	self-aminoacylation (biotinyl-Phe-oxazolone)	self-aminoacylation (biotinyl-Trp-oxazolone)
AUUACCCUAGUGAUCGAGUGA [Fam2.1 aminoacylation ribozyme variant]	1.86	1.76	3.31	2.72	7.82	3.1
AUUACCCUCGGCAUCGAGUGA [Fam2.1 aminoacylation ribozyme variant]	4.45	4.6	10.2	11.1	59.4	13.9
AUUACCCUCGUCAUAGAGUGA [Fam2.1 aminoacylation ribozyme variant]	2.72	2.43	4.53	4.19	11.5	4.65
AUUACCCUCGUCAUCAAGUGA [Fam2.1 aminoacylation ribozyme variant]	2.19	1.92	2.96	2.87	6.71	4.2
AUUACCCUCGUCAUCCAGUGA [Fam2.1 aminoacylation ribozyme variant]	1.29	1.44	1.51	1.94	1.18	1.02
AUUACCCUCGUCAUCGAGUGC [Fam2.1 aminoacylation ribozyme variant]	0.864	0.96	0.914	1.17	1.29	0.477
AUUACCCUCGUCAUCGAGUUA [Fam2.1 aminoacylation ribozyme variant]	0.943	0.965	0.915	0.983	0.569	0.486
AUUACCCUCGUCAUUGAGUGA [Fam2.1 aminoacylation ribozyme variant]	2.55	2.22	4.09	3.99	11.2	5.16
AUUACCCUCUUCAUCGAGUGA [Fam2.1 aminoacylation ribozyme variant]	1.11	1.02	1.33	1.41	1.52	0.851
AUUACCCUGAUCAUCAAGUGA [Fam2.1 aminoacylation ribozyme variant]	1.77	1.57	2.3	2.77	3.86	3.1
AUUACCCUGAUCAUCGACUGA [Fam2.1 aminoacylation ribozyme variant]	0.876	0.928	0.78	0.777	1.16	0.666
AUUACCCUGAUCAUCGAGUCA [Fam2.1 aminoacylation ribozyme variant]	0.786	0.738	0.577	0.722	0.555	0.305
AUUACCCUGAUCAUCGUGUGA [Fam2.1 aminoacylation ribozyme variant]	2.67	2.37	5.72	5.65	27.5	5.88
AUUACCCUGCUCAUCGAGGGA [Fam2.1 aminoacylation ribozyme variant]	0.905	1.02	0.947	0.858	0.691	0.707
AUUACCCUGCUCAUCGAGUGA [Fam2.1 aminoacylation ribozyme variant]	1.52	1.34	1.99	1.87	2.7	2.33
AUUACCCUGCUCAUCGGGUGA [Fam2.1 aminoacylation ribozyme variant]	3.34	2.63	4.81	5.17	33.5	6
AUUACCCUGCUCAUGGAGUGA [Fam2.1 aminoacylation ribozyme variant]	4.47	4.53	9.54	10.1	63.7	12.3
AUUACCCUGGACAACGAGUGA [Fam2.1 aminoacylation ribozyme variant]	3.76	3.88	8.65	8.43	59.1	9.2
AUUACCCUGGACAGCGAGUGA [Fam2.1 aminoacylation ribozyme variant]	2.12	2.24	3.3	4.19	10.9	2.52
AUUACCCUGGACAUCGAAUGA [Fam2.1 aminoacylation ribozyme variant]	0.895	1.23	0.846	0.96	0.708	0.378
AUUACCCUGGACAUCGAGUGA [Fam2.1 aminoacylation ribozyme variant]	2.79	2.52	5.32	5.18	19.6	5.97
AUUACCCUGGACAUCGCGUGA [Fam2.1 aminoacylation ribozyme variant]	5.5	4.42	9.04	9.65	80	9.83
AUUACCCUGGACAUCGGGUGA [Fam2.1 aminoacylation ribozyme variant]	7.46	7.02	9.33	10.2	29.7	7.69
AUUACCCUGGACCUCGAGUGA [Fam2.1 aminoacylation ribozyme variant]	2.4	1.88	3.68	3.9	5.71	3.16
AUUACCCUGGAGAUCGAGUGA [Fam2.1 aminoacylation ribozyme variant]	3.79	3.59	6.7	7.42	28.9	8.06
